Data: US20240270846A1 (published 2024)

B1: CE115HA000 V100cD one-arm antibody (antibody, human IgG1, kappa, L234A L235A, N297A, name in Kabat numbering)
heavy: QVQLVESGGGVVQPGRSLRLSCAASGFTFSNAWMHWVRQAPGKGLEWVAQIKAKSNNYATYYAESVKGRFTISRDDSKNSLYLQMNSLKTEDTAVYYCRYVHYGAYYGDDAWGQGTTVTVSSASTKGPSVFPLAPSSKSTSGGTAALGCLVKDYFPEPVTVSWNSGALTSGVHTFPAVLQSSGLYSLSSVVTVPSSSLGTQTYICNVNHKPSNTKVDKKVEPKSCDKTHTCPPCPAPEAAGGPSVFLFPPKPKDTLMISRTPEVTCVVVDVSHEDPEVKFNWYVDGVEVHNAKTKPREEQYASTYRVVSVLTVLHQDWLNGKEYKCKVSNKALPAPIEKTISKAKGQPREPQVYTLPPSRCELTKNQVSLSCAVKGFYPSDIAVEWESNGQPENNYKTTPPVLDSDGSFFLVSKLTVDKSRWQQGNVFSCSVMHEALHNHYTQKSLSLSPDYKDDDDK
chain: EPKSSDKTHTCPPCPAPELLGGPSVFLFPPKPKDTLMISRTPEVTCVVVDVSHEDPEVKFNWYVDGVEVHNAKTKPREEQYNSTYRVVSVLTVLHQDWLNGKEYKCKVSNKALPAPIEKTISKAKGQPREPQVCTLPPSRDELTKNQVSLWCLVKGFYPSDIAVEWESNGQPENNYKTTPPVLDSDGSFFLYSKLTVDKSRWQQGNVFSCSVMHEALHNRYTQKSLSLSP
light: DIVMTQSPLSLPVTPGEPASISCRSSQSLVHSNRNTYLHWYQQKPGQAPRLLIYKVSNRFSGVPDRFSGSGSGTDFTLKISRVEAEDVGVYYCGQGTQVPYTFGQGTKLEIKRTVAAPSVFIFPPSDEQLKSGTASVVCLLNNFYPREAKVQWKVDNALQSGNSQESVTEQDSKDSTYSLSSTLTLSKADYEKHKVYACEVTHQGLSSPVTKSFNRGEC
notes: one-arm antibody (one Fab)
B2: CE115HA000 V100cE one-arm antibody (antibody, human IgG1, kappa, L234A L235A, N297A, name in Kabat numbering)
heavy: QVQLVESGGGVVQPGRSLRLSCAASGFTFSNAWMHWVRQAPGKGLEWVAQIKAKSNNYATYYAESVKGRFTISRDDSKNSLYLQMNSLKTEDTAVYYCRYVHYGAYYGEDAWGQGTTVTVSSASTKGPSVFPLAPSSKSTSGGTAALGCLVKDYFPEPVTVSWNSGALTSGVHTFPAVLQSSGLYSLSSVVTVPSSSLGTQTYICNVNHKPSNTKVDKKVEPKSCDKTHTCPPCPAPEAAGGPSVFLFPPKPKDTLMISRTPEVTCVVVDVSHEDPEVKFNWYVDGVEVHNAKTKPREEQYASTYRVVSVLTVLHQDWLNGKEYKCKVSNKALPAPIEKTISKAKGQPREPQVYTLPPSRCELTKNQVSLSCAVKGFYPSDIAVEWESNGQPENNYKTTPPVLDSDGSFFLVSKLTVDKSRWQQGNVFSCSVMHEALHNHYTQKSLSLSPDYKDDDDK
chain: EPKSSDKTHTCPPCPAPELLGGPSVFLFPPKPKDTLMISRTPEVTCVVVDVSHEDPEVKFNWYVDGVEVHNAKTKPREEQYNSTYRVVSVLTVLHQDWLNGKEYKCKVSNKALPAPIEKTISKAKGQPREPQVCTLPPSRDELTKNQVSLWCLVKGFYPSDIAVEWESNGQPENNYKTTPPVLDSDGSFFLYSKLTVDKSRWQQGNVFSCSVMHEALHNRYTQKSLSLSP
light: DIVMTQSPLSLPVTPGEPASISCRSSQSLVHSNRNTYLHWYQQKPGQAPRLLIYKVSNRFSGVPDRFSGSGSGTDFTLKISRVEAEDVGVYYCGQGTQVPYTFGQGTKLEIKRTVAAPSVFIFPPSDEQLKSGTASVVCLLNNFYPREAKVQWKVDNALQSGNSQESVTEQDSKDSTYSLSSTLTLSKADYEKHKVYACEVTHQGLSSPVTKSFNRGEC
notes: one-arm antibody (one Fab)
B3: CE115HA000 V100cP one-arm antibody (antibody, human IgG1, kappa, L234A L235A, N297A, name in Kabat numbering)
heavy: QVQLVESGGGVVQPGRSLRLSCAASGFTFSNAWMHWVRQAPGKGLEWVAQIKAKSNNYATYYAESVKGRFTISRDDSKNSLYLQMNSLKTEDTAVYYCRYVHYGAYYGPDAWGQGTTVTVSSASTKGPSVFPLAPSSKSTSGGTAALGCLVKDYFPEPVTVSWNSGALTSGVHTFPAVLQSSGLYSLSSVVTVPSSSLGTQTYICNVNHKPSNTKVDKKVEPKSCDKTHTCPPCPAPEAAGGPSVFLFPPKPKDTLMISRTPEVTCVVVDVSHEDPEVKFNWYVDGVEVHNAKTKPREEQYASTYRVVSVLTVLHQDWLNGKEYKCKVSNKALPAPIEKTISKAKGQPREPQVYTLPPSRCELTKNQVSLSCAVKGFYPSDIAVEWESNGQPENNYKTTPPVLDSDGSFFLVSKLTVDKSRWQQGNVFSCSVMHEALHNHYTQKSLSLSPDYKDDDDK
chain: EPKSSDKTHTCPPCPAPELLGGPSVFLFPPKPKDTLMISRTPEVTCVVVDVSHEDPEVKFNWYVDGVEVHNAKTKPREEQYNSTYRVVSVLTVLHQDWLNGKEYKCKVSNKALPAPIEKTISKAKGQPREPQVCTLPPSRDELTKNQVSLWCLVKGFYPSDIAVEWESNGQPENNYKTTPPVLDSDGSFFLYSKLTVDKSRWQQGNVFSCSVMHEALHNRYTQKSLSLSP
light: DIVMTQSPLSLPVTPGEPASISCRSSQSLVHSNRNTYLHWYQQKPGQAPRLLIYKVSNRFSGVPDRFSGSGSGTDFTLKISRVEAEDVGVYYCGQGTQVPYTFGQGTKLEIKRTVAAPSVFIFPPSDEQLKSGTASVVCLLNNFYPREAKVQWKVDNALQSGNSQESVTEQDSKDSTYSLSSTLTLSKADYEKHKVYACEVTHQGLSSPVTKSFNRGEC
notes: one-arm antibody (one Fab)
B4: CE115HA000 Y55S one-arm antibody (antibody, human IgG1, kappa, L234A L235A, N297A, name in Kabat numbering)
heavy: QVQLVESGGGVVQPGRSLRLSCAASGFTFSNAWMHWVRQAPGKGLEWVAQIKAKSNNSATYYAESVKGRFTISRDDSKNSLYLQMNSLKTEDTAVYYCRYVHYGAYYGVDAWGQGTTVTVSSASTKGPSVFPLAPSSKSTSGGTAALGCLVKDYFPEPVTVSWNSGALTSGVHTFPAVLQSSGLYSLSSVVTVPSSSLGTQTYICNVNHKPSNTKVDKKVEPKSCDKTHTCPPCPAPEAAGGPSVFLFPPKPKDTLMISRTPEVTCVVVDVSHEDPEVKFNWYVDGVEVHNAKTKPREEQYASTYRVVSVLTVLHQDWLNGKEYKCKVSNKALPAPIEKTISKAKGQPREPQVYTLPPSRCELTKNQVSLSCAVKGFYPSDIAVEWESNGQPENNYKTTPPVLDSDGSFFLVSKLTVDKSRWQQGNVFSCSVMHEALHNHYTQKSLSLSPDYKDDDDK
chain: EPKSSDKTHTCPPCPAPELLGGPSVFLFPPKPKDTLMISRTPEVTCVVVDVSHEDPEVKFNWYVDGVEVHNAKTKPREEQYNSTYRVVSVLTVLHQDWLNGKEYKCKVSNKALPAPIEKTISKAKGQPREPQVCTLPPSRDELTKNQVSLWCLVKGFYPSDIAVEWESNGQPENNYKTTPPVLDSDGSFFLYSKLTVDKSRWQQGNVFSCSVMHEALHNRYTQKSLSLSP
light: DIVMTQSPLSLPVTPGEPASISCRSSQSLVHSNRNTYLHWYQQKPGQAPRLLIYKVSNRFSGVPDRFSGSGSGTDFTLKISRVEAEDVGVYYCGQGTQVPYTFGQGTKLEIKRTVAAPSVFIFPPSDEQLKSGTASVVCLLNNFYPREAKVQWKVDNALQSGNSQESVTEQDSKDSTYSLSSTLTLSKADYEKHKVYACEVTHQGLSSPVTKSFNRGEC
notes: one-arm antibody (one Fab)

target: T1, CD3 epsilon homodimer protein (UniProt P07766 23-126); test: SPR Biacore T200, CD3 epsilon homodimer on CM4 chip, antibody as analyte;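 note: Amine-coupled CD3 epsilon homodimer, run at 25 °C in HBS-EP+ buffer, ratio is bound amount of each single-residue H chain variant over that of the parent antibody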
T1 construct: Immobilized on Sensor chip CM4 by amine coupling; construct not described; also called CD3 (CD3 epsilon)
T1 sequence (P07766 23-126): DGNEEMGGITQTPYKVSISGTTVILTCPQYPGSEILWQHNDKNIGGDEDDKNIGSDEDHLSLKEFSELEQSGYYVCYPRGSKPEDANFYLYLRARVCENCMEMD

In order of rising “ratio of amounts bound (Y/X vs CE115HA000)” value:
1. B3  0.2
2. B4  0.26
3. B1  0.44
4. B2  0.46
